Measurements taken from the supplement of paper PMC11780869.

System: Bacillus subtilis
Assay: cleaved RNA product abundance (RNA/gDNA barcode ratio) relative to median wild-type variant (ratio to wild type); higher = more accumulation of the downstream cleavage product
In short: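 Oligos with a 9% error rate were used to build barcoded, mutagenized RNase Y cleavage-site windows within truncated aprE or tetM reporter mRNAs, which were integrated into the B. subtilis chromosome. Cultures were grown in LB at 37°C between OD600 0.0003 and 0.3. Cleaved RNA was gel-selected, reverse transcribed and barcode-sequenced, as were genomic DNA barcodes, and UMIs were collapsed. Cleaved product abundance is the scaled RNA:gDNA barcode ratio, with the median construct carrying the unmutated site as reference.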

[1] = experiment (reporter, strain, medium): exp 2b: truncated aprE reporter, strain BJT200, cleavage site: cggR-gapA (positions -7 to +36 mutated)
[2] = experiment (reporter, strain, medium): exp 4a: truncated aprE reporter, strain BJT201 with 2% xylose (RNase J1 expressed), cleavage site: cggR-gapA (positions -7 to +36 mutated)
[3] = experiment (reporter, strain, medium): exp 8a: truncated aprE reporter, strain BJT201 with 2% xylose (RNase J1 expressed), cleavage site: glnRA (positions -5 to +31 mutated)

Row | Sequence | cleaved RNA product abundance [1] | cleaved RNA product abundance [2] | cleaved RNA product abundance [3] | further results
1 | ACAGACGAAGGAGCCGCAAAGAAGTTATTAAGGGATGAATAAACCCTCAAAATAAATATCTCTCACTTATTTAAA | 0.196 | 0.198 | – | –
2 | CGACATGTCCCGCTTCTTTCATTAATCAGTTAGCAACTGTTTTTCTATATACATTTACCTTTTAAGAGGAGGAAT | – | – | 0.642 | –
3 | CGACATGTCCCGCTTCTTTCATTAATCCGTTAGCAACTGTTTTGCTATATCCATTGACCTTTTAAGAGGAGGAAT | – | – | 0.461 | –
4 | CGACATGTCCCGCTTCTTTCATTAAACCGTTTGCAACTGTTTTGCTATATACATTTACCTTTTAAGAGGAGGAAT | – | – | 0.331 | –
5 | ACAGACGAAGGAGCCGCAAAGAAGTTCTTAAGGGATGAATAATGCCTCAATATAAATATCTCTCACTTATTTAAA | 0.0955 | – | – | –
6 | CGACATGTCCCGCTTCTTTCATTAAACCGTTAGCAACTGTTTTGCTATATCCATTTACCTTTTAAGAGGAGGAAT | – | – | 0.0869 | –
7 | CGACATGTCCCGCTTCTTTCATTAATCCGTCAGCAACTGTTTTGCTATATACATTTAACTTTTAAGAGGAGGAAT | – | – | 0.483 | –
8 | ACAGACGAAGGAGCCGCAAAGAAGTTATTAAGTGATGAATAATCCCTCATTATAAATATCTCTCACTTATTTAAA | 0.0978 | 0.151 | – | –
9 | ACAGACGAAGGAGCCGCAAAGAAGTTATAAAGGGATGAATAATCCCTCAATATAAATATATCTCACTTATTTAAA | – | 0.419 | – | –
10 | CGACATGTCCCGCTTCTTTCATTAATCCGTTAGCAAGTGTTTTGCTATTTACATTTACCTTTTAAGAGGAGGAAT | – | – | 0.163 | –
11 | ACAGACGAAGGAGCCGCAAAGAAGTTATTAAGGAATGATTAATCCCTCAATATAAATATCTCTCACTTATTTAAA | 0.115 | 0.11 | – | –
12 | ACAGACGAAGGAGTCGCAAAGAAGTTATTAAGGGATGAATAATCCCTCAATATAAATATCTCTCACTTATTTAAA | – | – | – | cleaved RNA product abundance (experiment (reporter, strain, medium): exp 6: tetM reporter, strain 168, cleavage site: cggR-gapA (positions -7 to +36 mutated)): 1.46
13 | ACAGACGAAGGAGCCGCAAAGAAGTTATTAAGGGATGAATAATCACTTAATATAAATATCTCTCACTTATTTAAA | 0.584 | 0.498 | – | –
14 | ACAGACGAAGGAGCCGCAAAGAAGTTATTAAGCGATGAATAATCCCTAAATATAAATATCTCTCACTTATTTAAA | 0.132 | 0.207 | – | –
15 | CGACATGTCCCGCTTCTTTCATTAATCCGTTAGCAACTGTTTTGCTATATACATTTTTCTTTTAAGAGGAGGAAT | – | – | 0.479 | –
16 | ACAGACGAAGGAGCCGCAAACAAGTTACTAAGGGATGAATAATCCCTCAATATAAATATCTCTCACTTATTTAAA | 0.169 | – | – | –
17 | ACAGACGAAGGAGCCGCAAAGAAGTTTTTAAGGGATGAATAATGCCTCAATATAAATATCTCTCACTTATTTAAA | 0.121 | 0.17 | – | –
18 | CGACATGTCCCGCTTCTTTCATTAAACCGTAAGCAACTGTTTTGCTATATACATTTACCTTTTAAGAGGAGGAAT | – | – | 0.203 | –
19 | ACAGACGAAGGAGCCGCAAAGAAGTTATTAAGGGATAAATAATCCCCCAATATAAATATCTCTCACTTATTTAAA | – | 0.22 | – | –
20 | ACAGACGAAGGAGCCGCAAAGATGTTATTAAGGGATGAATAATCCTTCAATATAAATATCTCTCACTTATTTAAA | 0.366 | 0.613 | – | –
21 | ACAGACGAAGGAGCCGCAAAGAAGTTATTAGGGGATGAATAATCCCTCAAAATAAATATCTCTCACTTATTTAAA | 0.351 | 0.476 | – | –
22 | ACAGACGAAGGAGCCGCAAAGAAGTTATTAAAGGATGAATAATCCCTCAAAATAAATATCTCTCACTTATTTAAA | 0.148 | 0.152 | – | –
23 | CGACATGTCCCGCTTCTTTCATTATTCCGTTAGCAACTGTTTAGGTATATACATTTACCTTTTAAGAGGAGGAAT | – | – | 0.443 | –
24 | ACAGACGAAGGAGCCGCAAAGAATTTATTAAGGGATGAATAATCCTTCAATATAAATATCTCTCACTTATTTAAA | – | 0.397 | – | –
25 | ACAGACGAAGGAGCCGCAAAGAAGTTATTAAGGCATGAATAATCCCTCATTATAAATATCTCTCACTTATTTAAA | 0.0915 | 0.0852 | – | –
26 | ACAGACGAAGGAGCCGCAAAGAAGTTATTAAGGCATGAATAATCCCTCACTATAAATATCTCTCACTTATTTAAA | 0.083 | 0.136 | – | –
27 | CGACATGTCCCGCTTCTTTCATTAATCAGTTAGAAACTGTTTTGCTATATACATTTACCTTTTAAGAGGAGGAAT | – | – | 0.328 | –
28 | ACAGACGAAGGAGCCGCAAAGAAGTTATTAAGGGATGAATAATCCCCCAATATAAACATCTCTCACTTATTTAAA | – | 0.291 | – | –
29 | CGACATGTCCCGCTTCTTTCATTAATCCGCCAGCAACTGTTTTGCTATATAGATTTACCTTTTAAGAGGAGGAAT | – | – | 0.284 | –
30 | ACAGACGAAGGAGCCGCACAGAAGTAATTAAGGGATGAATAATCCCTCAATATAAATATCTCTCACTTATTTAAA | – | 0.391 | – | –
